Data reported in patent publication US20200062804A1 (ADRX, published 2020).
“And” between values parts separate entries of the source, which are not always exact repeats. Identical values can stand only once. Non-standard residues stand in square brackets, D forms with d. No end group written: not given here. hArg = N=C(N)NCCCC[C@H](N)C(=O)O; NMeK = CN[C@@H](CCCCN)C(=O)O; Phg = N[C@H](C(=O)O)c1ccccc1

T1: Nat1 (LTIITLE) (also: TFA salt)
T1 peptide: LTIITLE


Tests used:
Protein in Human Serum = assay: protein binding in human serum; method not described
Nat1 (LTIITLE) = target: T1, Nat1 (LTIITLE); assay: cell-based or functional assay

Molecule | % Protein Binding in Human Serum (Protein in Human Serum) | IC50, Thiofiavin T aggregation assay (Nat1 (LTIITLE))
rrrrrrrrrrpihqrqyqr (peptide) | 12% | 
rrrrrrrrrrpikfrfyhr (peptide) | 86% | 
rrrrrrrrrrpirihyfrr (peptide) | 93% | 
rrrrrrrrrrpiyqwyrwq (peptide) | 99% | 
rrrrrrrrrrpikwrwyrr (peptide) | 94% | 
rrrrrrrrrgggyqwyrwq (peptide) | 89% | 
rrrrrrrrrrpihlriwrn (peptide) | 95% | 
[dY][dQ][dY][dY][dF][dW][dR] [yqyyfwr] |  | 181 nM
[dH][dL][dR][dY][dH][dR][dK] [hlryhrk] |  | 192 nM
IRIRRY |  | 205 nM
TRIYRYK |  | 213 nM
[dR][dW][dR][dI][dL][dQ][dK] [rwrilqk] |  | 199 nM
[dS][dF][dW][dY][dK][dR][dR] [sfwykrr] |  | 116 nM
IR[Phg]RRYR [Ile-Arg-Phg-Arg-Arg-Tyr-Arg] |  | 124 nM
[dR][dL][dH][dW][dK][dH][dH] [rlhwkhh] |  | 215 nM
LRIRYWK |  | 36 nM
YTRITYH |  | 150 nM
LRIRHYT |  | 182 nM
RRRRRRRRRRPIIRIRHYP | 83% | 
[dQ][dI][dR][dY][dF][dR][dR] [qiryfrr] |  | 167 nM
[dR][dW][dH][dW][dH][dW][dR] [rwhwhwr] |  | 145 nM
[dL][dW][dR][dW][dY][dR][dR] [lwrwyrr] |  | 194 nM
[dY][dQ][dY][dY][dY][dQ][dR] [yqyyyqr] |  | 118 nM

Molecule | % Protein Binding in Human Serum (Protein in Human Serum) | IC50, Thiofiavin T aggregation assay (Nat1 (LTIITLE))
[dH][dQ][dR][dY][dY][dW][dR] [hqryywr] |  | 138 nM
IRIRHYRP |  | 142 nM
IRIRRAR |  | 37 nM
[dR][dW][dM][dY][dW][dQ][dR] [rwmywqr] |  | 216 nM
[dF][dW][dR][dW][dA][dR][dR] [fwrwarr] |  | 176 nM
[dR][dW][dR][dW][dH][dH][dR] [rwrwhhr] |  | 156 nM
[dR][dI][dH][dY][dF][dR][dR] [rihyfrr] |  | 43 nM
YRLRYVR |  | 175 nM
PRRRRRRRRRRPILRIRYWKP | 98% | 
RRRRRRRRRRPIIRIRHYRP | 81% | 
LRLRHYR |  | 146 nM
LAIKYHR |  | 220 nM
PRRRRRRRRRRPIIRIRHYRP | 89% | 
WTRITLK |  | 222 nM
[dF][dF][dR][dF][dH][dH][dR] [ffrfhhr] |  | 151 nM
[dR][dW][dY][dW][dH][dH][dR] [rwywhhr] |  | 115 nM
IRLRRYR |  | 153 nM
LTIRLWH |  | 198 nM
WTIRYYK |  | 203 nM
[dY][dQ][dW][dR][dY][dR][dR] [yqwryrr] |  | 191 nM
[dF][dW][dR][dW][dH][dR][dR] [fwrwhrr] |  | 147 nM and 164 nM
[dR][dI][dR][dW][dY][dW][dK] [rirwywk] |  | 110 nM
[dH][dW][dR][dY][dH][dR][dR] [hwryhrr] |  | 139 nM

Molecule | % Protein Binding in Human Serum (Protein in Human Serum) | IC50, Thiofiavin T aggregation assay (Nat1 (LTIITLE))
[dF][dW][dR][dW][dH][dR][dA] [fwrwhra] |  | 228 nM
RRRRRRRRRRPIIRIRHYR | 84% | 
PRRRRRRRRRRPIWTIKLWHP | 100% | 
LRIYHHK |  | 152 nM
LFIKYHR |  | 210 nM
[dL][dW][dR][dR][dY][dH][dR] [lwrryhr] |  | 108 nM
RRRRRRRRRRPILTRITLE | 66% | 
LYIRTLH |  | 203 nM
[dR][dQ][dW][dY][dH][dW][dR] [rqwyhwr] |  | 132 nM
LYIKYHR |  | 148 nM
FRIRRYR |  | 185 nM
[dH][dW][dR][dW][dY][dW][dK] [hwrwywk] |  | 159 nM
LYIRLTH |  | 192 nM
LYIRYTH |  | 180 nM
LRI[NMeK]YHR [LRI(N-Me)KYHR] |  | 125 nM
[dQ][dF][dR][dM][dH][dH][dR] [qfrmhhr] |  | 181 nM
PRRRRRRRRRRPITRIRFYRP | 89% | 
[dR][dQ][dH][dY][dR][dW][dR] [rqhyrwr] |  | 210 nM
IRI[hArg]RYR [Ile-Arg-Ile-homoArg-Arg-Tyr-Arg] |  | 40 nM
[dR][dF][dE][dF][dR][dH][dR] [rfefrhr] |  | 117 nM
[dY][dQ][dW][dR][dH][dW][dR] [yqwrhwr] |  | 112 nM
ARIRRYR |  | 144 nM
[dS][dW][dW][dF][dR][dH][dR] [swwfrhr] |  | 187 nM
